Here are results for 27 molecules from patent US20200308267A1 (Boehringer Ingelheim, published 2020).

Substitutions are numbered along the chain they refer to.

B1: VEGFBII010 (VHH, not shown: small tags and cut ends)
chain: EVQLVESGGGLVQTGDSLRLSCEVSGRTFSSYSMGWFRQAQGKEREFVVAISKGGYKYDSVSLEGRFTISKDNAKNTVYLQINSLKPEDTAVYYCASSRAYGSSRLRLADTYEYWGQGTQVTVSSGGGGSGGGGSGGGGSGGGGSGGGGSGGGGSGGGGSEVQLVESGGGLVQTGDSLRLSCEVSGRTFSSYSMGWFRQAQGKEREFVVAISKGGYKYDSVSLEGRFTISKDNAKNTVYLQINSLKPEDTAVYYCASSRAYGSSRLRLADTYEYWGQGTQVTVSS
B2: VEGFBII022 (VHH, not shown: small tags and cut ends)
chain: EVQLVESGGGLVQTGDSLRLSCEVSGRTFSSYSMGWFRQAQGKEREFVVAISKGGYKYDSVSLEGRFTISKDNAKNTVYLQINSLKPEDTAVYYCASSRAYGSSRLRLADTYEYWGQGTQVTVSSGGGGSGGGSEVQLVESGGGLVQPGGSLRLSCVASGIRFMSMAWYRQAPGKHRELVARISSGGTTAYVDSVKGRFTISRDNSKNTVYLQMNSLKAEDTAVYYCNTFSSRPNPWGAGTQVTVSS
B3: VEGFBII023 (VHH, not shown: small tags and cut ends)
chain: EVQLVESGGGLVQTGDSLRLSCEVSGRTFSSYSMGWFRQAQGKEREFVVAISKGGYKYDSVSLEGRFTISKDNAKNTVYLQINSLKPEDTAVYYCASSRAYGSSRLRLADTYEYWGQGTQVTVSSGGGGSGGGGSGGGGSGGGGSGGGGSGGGGSGGGGSGGGGSEVQLVESGGGLVQAGGSLRLSCAASGRTFSNYAMGWFRQAPGKERVLVADISSSGINTYVADAVKGRFTISRDNAKNTVYLQMNSLKPEDTAVYYCAASAWWYSQMARDNYRYWGQGTQVTVSS
B4: VEGFBII021 (VHH, not shown: small tags and cut ends)
chain: EVQLVESGGGLVQTGDSLRLSCEVSGRTFSSYSMGWFRQAQGKEREFVVAISKGGYKYDSVSLEGRFTISKDNAKNTVYLQINSLKPEDTAVYYCASSRAYGSSRLRLADTYEYWGQGTQVTVSSGGGGSGGGGSGGGGSGGGGSGGGGSGGGGSGGGGSGGGGSEVQLVESGGGLVQPGGSLRLSCVASGIRFMSMAWYRQAPGKHRELVARISSGGTTAYVDSVKGRFTISRDNSKNTVYLQMNSLKAEDTAVYYCNTFSSRPNPWGAGTQVTVSS
B5: VEGFBII42D05 (VHH, not shown: small tags and cut ends)
VHH: EVQLVESGGGLVQPGDSLKLSCAFSGRTFSSYSMGWFRQAQGKEREFVVAISSSGGYIYDSVSLEGRFTISRDNTKNTVYLQTPSLKPEDTAVYYCAASRAYGSSRLRLADTYDYWGQGTQVTVSS
B6: VEGFBII23F11 (VHH, not shown: small tags and cut ends)
VHH: B5 VHH with S54G, V93D
B7: VEGFBII42A05 (VHH, not shown: small tags and cut ends)
VHH: B5 VHH with T83M, V93D
B8: VEGFBII23G03 (VHH, not shown: small tags and cut ends)
VHH: B5 VHH with S30G, T75S, A110P, D111G
B9: VEGFBII22B07 (VHH, not shown: small tags and cut ends)
VHH: B5 VHH with P14A, K19R, F24A, G56N, I58K, T83I, P84N, A110G
B10: VEGFBII30E07 (VHH, not shown: small tags and cut ends)
VHH: B5 VHH with P14A, K19R, F24A, G56N, I58K, T83I, P84N, A110G, Q121R
B11: VEGFBII22B06 (VHH, not shown: small tags and cut ends)
VHH: B5 VHH with F24A
B12: VEGFBII62D10 (VHH, not shown: small tags and cut ends)
VHH: B5 VHH with G8E, P14A, K19R, F24A, G56N, I58K, T83I, P84N, A110G
B13: VEGFBII60A09 (VHH, not shown: small tags and cut ends)
VHH: B5 VHH with K76R, V93D
B14: VEGFBII23A09 (VHH, not shown: small tags and cut ends)
VHH: B5 VHH with S30G, T75S, A110P
B15: VEGFBII56E11 (VHH, not shown: small tags and cut ends)
VHH: B5 VHH with T91A, V93D
B16: VEGFBII39E02 (VHH, not shown: small tags and cut ends)
VHH: B5 VHH with S17P, V93D
B17: VEGFBII40H10 (VHH, not shown: small tags and cut ends)
VHH: B5 VHH with V5M, V93D
B18: VEGFBII40G07 (VHH, not shown: small tags and cut ends)
VHH: B5 VHH with T78A, V93D
B19: VEGFBII62A09 (VHH, not shown: small tags and cut ends)
VHH: B5 VHH with G10D, F24A
B20: VEGFBII22A10 (VHH, not shown: small tags and cut ends)
VHH: B5 VHH with V93D
B21: VEGFBII31C07 (VHH, not shown: small tags and cut ends)
VHH: B5 VHH with P14T, K19R, F24A, R27G, V93D
B22: VEGFBII39G04 (VHH, not shown: small tags and cut ends)
VHH: B5 VHH with Q3P, P14A, K19R, F24A, G56N, I58K, V62A, T83I, P84N, A110G
B23: VEGFBII23F05 (VHH, not shown: small tags and cut ends)
VHH: B5 VHH with P14A, K19R, F24A, G56N, I58K, T83I, P84N, E89K, A110G
B24: VEGFBII41G03 (VHH, not shown: small tags and cut ends)
VHH: EVQLVESGGGLVQPGDSLKLSCAFSGRTFSSYSMAWFRQAQGKEREFVVAISSGGFIYDAVSLEGRFTISRENTKNTVYLQTPSLKPEDTAVYYCAASRAYGSSRLRLADTYDYWGQGTQVTVSS
B25: VEGFBII62F02 (VHH, not shown: small tags and cut ends)
VHH: B24 VHH with A35G, S52A, F56Y, E72D, N76D
B26: VEGFBII61A01 (VHH, not shown: small tags and cut ends)
VHH: B24 VHH with P14A, D16G, K19R, A35G, F56Y, I57K, E72D, G102A
B27: VEGFBII42F11 (VHH, not shown: small tags and cut ends)
VHH: B24 VHH with A23V, F24A, F29S, M34V, A35G, F56Y, A60S, E64Q, E72D

For the first assay, the target named is VEGF. The assay can be described thus: cell-based or functional assay.
Chain of VEGF (P15692 whole entry): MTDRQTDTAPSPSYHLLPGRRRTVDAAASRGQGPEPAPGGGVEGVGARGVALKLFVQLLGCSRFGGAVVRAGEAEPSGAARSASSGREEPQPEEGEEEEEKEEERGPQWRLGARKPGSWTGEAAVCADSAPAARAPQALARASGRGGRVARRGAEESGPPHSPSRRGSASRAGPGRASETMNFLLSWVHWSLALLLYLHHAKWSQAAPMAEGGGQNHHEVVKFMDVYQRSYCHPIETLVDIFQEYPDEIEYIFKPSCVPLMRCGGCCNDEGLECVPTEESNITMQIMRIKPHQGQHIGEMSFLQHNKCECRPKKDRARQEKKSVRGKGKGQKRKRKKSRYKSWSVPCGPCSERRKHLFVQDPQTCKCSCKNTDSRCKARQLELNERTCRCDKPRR
On to B1, for which the “HUVEC proliferation, % inhibition” value amounted to 95% and the “HUVEC proliferation, IC50” value amounted to 0.22 nM.
Consider B2, for which the “HUVEC proliferation, % inhibition” value was 100% and the “HUVEC proliferation, IC50” value turned out to be 0.34 nM.
For B3 the same measures were 98% and 0.52 nM.
The like results for B4 were, in that order, 98% and 0.4 nM.

A further assay deals with VEGF. In words: cell-based or functional assay. The source holds these as a separate data set.
As to B1, the “HUVEC Erk phosphorylation, % inhibition” value came out at 92% and the “HUVEC Erk phosphorylation, IC50” value was found to be 0.19 nM.
For B2 the same measures were 94% and 0.18 nM.
B3: the “HUVEC Erk phosphorylation, % inhibition” value came out at 100% and the “HUVEC Erk phosphorylation, IC50” value amounted to 0.25 nM.
For B4 the same measures were 103% and 0.21 nM.

For the next assay, the target named is T1, recombinant human VEGF165 (human, UniProt P15692-4 27-191, biotinylated (Sulfo-NHS-LC-Biotin) in the competition assays).
T1 construct: also called hVEGF165; rhVEGF165
T1 sequence (P15692 other isoform, or with tags, fused parts or gaps limits assumed): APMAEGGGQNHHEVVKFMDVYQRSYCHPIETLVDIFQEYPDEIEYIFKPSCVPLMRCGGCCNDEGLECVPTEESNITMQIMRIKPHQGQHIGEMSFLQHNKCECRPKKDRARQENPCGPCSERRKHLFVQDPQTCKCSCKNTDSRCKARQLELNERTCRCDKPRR
The assay can be described thus: Biacore, periplasmic extract, VEGF165 chip, two phase decay fit. The arrangement: unit not given here. As to the method:
Dissociation rates of inhibitory VHHs are analyzed on Biacore (Biacore T100 instrument, GE Healthcare). HBS-EP+ buffer is used as running buffer and experiments are performed at 25° C. […] After immobilization, surfaces are deactivated with 10 min injection of 1 M ethanolamine pH8.5. A reference surface is activated and deactivated with respectively EDC/NHS and ethanolamine. Periplasmic extracts of VHHs are injected at a 10-fold dilution in running buffer for 2 min at 45 μl/min and allowed to dissociate for 10 or 15 min. Between different samples, the surfaces are regenerated with regeneration buffer. Data are double referenced by subtraction of the curves on the reference channel and of a blank running buffer injection. […] is evaluated by fitting a two phase decay model in the Biacore T100 Evaluation software v2.0.1.
B5: the “kd(fast)” value was determined as 0.033 and the “kd(slow)” value was determined as 0.00015.
For B6 the same measures were 0.027 and 0.00013.
For B7 the same measures were 0.016 and 0.00034.
The like results for B8 were, in that order, 0.028 and 8.6e-05.
For B9, the “kd(fast)” value stood at 0.015 and the “kd(slow)” value worked out at 7.8e-05.
The like results for B10 were, in that order, 0.017 and 0.00013.
For B11 the same measures were 0.038 and 9e-05.
The like results for B12 were, in that order, 0.019 and 0.00016.
As for B13, the “kd(fast)” value was 0.037 and the “kd(slow)” value was found to be 9.3e-05.
As to B14, the “kd(fast)” value turned out to be 0.027 and the “kd(slow)” value stood at 4.6e-05.
The like results for B15 were, in that order, 0.033 and 0.00014.
The like results for B16 were, in that order, 0.019 and 0.00024.
The like results for B17 were, in that order, 0.014 and 0.00029.
For B18, the “kd(fast)” value came out at 0.018 and the “kd(slow)” value turned out to be 0.00032.
The like results for B19 were, in that order, 0.041 and 0.00011.
For B20 the same measures were 0.037 and 4e-05.
With B21, the “kd(fast)” value worked out at 0.037 and the “kd(slow)” value turned out to be 0.00015.
The like results for B22 were, in that order, 0.014 and 0.00074.
As to B23, the “kd(fast)” value was 0.016 and the “kd(slow)” value worked out at 0.00013.
For B24 the same measures were 0.012 and 0.00027.
The like results for B25 were, in that order, 0.014 and 8.5e-05.
The like results for B26 were, in that order, 0.0074 and 0.00017.
Consider B27, for which the “kd(fast)” value was found to be 0.0091 and the “kd(slow)” value worked out at 0.0005.
